According to patent US20240025965A1 (UNIVERSITEIT TWENTE, published 2024):
Where no end group is shown, it is not given here. membrane = cellular membrane (peptide-display support, peptide attached at its C-terminus via a stable linker); glass slide = glass slide (microarray support, peptide conjugated at its N-terminus via a PEG linker); stable linker = not defined here; PEG linker = not defined here; linker = not defined here; PEG = not defined here

B1: SGATEWLRWFNS (peptide)
peptide: {glass slide-PEG}-SGATEWLRWFNS
modifications: reading uncertain
notes: alanine-scan variant of AXI-I; fixed on the array by its N-terminus through a PEG linker; also called AXI-I with L3 replaced by alanine
B2: RWFNS (peptide)
peptide: {glass slide-PEG}-RWFNS
modifications: reading uncertain
notes: chain-length variant of AXI-I (positions 8-12); fixed on the array by its N-terminus through a PEG linker
B3: SGLTE (peptide)
peptide: {glass slide-PEG}-SGLTE
modifications: reading uncertain
notes: chain-length variant of AXI-I (positions 1-5); fixed on the array by its N-terminus through a PEG linker
B4: SGLTEWLR (peptide)
peptide: {glass slide-PEG linker}-SGLTEWLR
modifications: reading uncertain
notes: chain-length variant of AXI-I (positions 1-8); fixed on the array by its N-terminus through a PEG linker
B5: SGLTEW (peptide)
peptide: {glass slide-PEG linker}-SGLTEW
modifications: reading uncertain
notes: chain-length variant of AXI-I (positions 1-6); fixed on the array by its N-terminus through a PEG linker
B6: AYYRITY (peptide)
peptide: {glass slide-PEG}-AYYRITY
modifications: reading uncertain
notes: also called AV3 with R1 replaced by alanine
B7: RAYRITY (peptide)
peptide: {glass slide-PEG}-RAYRITY
modifications: reading uncertain
notes: also called AV3 with Y2 replaced by alanine
B8: RYYAITY (peptide)
peptide: {glass slide-PEG}-RYYAITY
modifications: reading uncertain
notes: also called AV3 with R4 replaced by alanine
B9: RYYRATY (peptide)
peptide: {glass slide-PEG}-RYYRATY
modifications: reading uncertain
notes: also called AV3 with I5 replaced by alanine
B10: RYYRITA (peptide)
peptide: {glass slide-PEG}-RYYRITA
modifications: reading uncertain
notes: also called AV3 with Y7 replaced by alanine

target: T1, rhIntegrin α11β1 (human, UniProt Q9UKX5 23-1141; P05556 21-728, limits assumed); assay: peptide microarray: peptide fixed by its N-terminus through a PEG linker, incubated with α11β1 receptor (10 µg/ml), anti-ITGA11 antibody and fluorescent secondary antibody, signal of the antibodies alone subtracted
T1 construct: Bought from R&D Systems; also called α11β1 receptor; ITGA11 receptor
T1 sequence (Q9UKX5 23-1141 limits assumed, chain 1 of 2): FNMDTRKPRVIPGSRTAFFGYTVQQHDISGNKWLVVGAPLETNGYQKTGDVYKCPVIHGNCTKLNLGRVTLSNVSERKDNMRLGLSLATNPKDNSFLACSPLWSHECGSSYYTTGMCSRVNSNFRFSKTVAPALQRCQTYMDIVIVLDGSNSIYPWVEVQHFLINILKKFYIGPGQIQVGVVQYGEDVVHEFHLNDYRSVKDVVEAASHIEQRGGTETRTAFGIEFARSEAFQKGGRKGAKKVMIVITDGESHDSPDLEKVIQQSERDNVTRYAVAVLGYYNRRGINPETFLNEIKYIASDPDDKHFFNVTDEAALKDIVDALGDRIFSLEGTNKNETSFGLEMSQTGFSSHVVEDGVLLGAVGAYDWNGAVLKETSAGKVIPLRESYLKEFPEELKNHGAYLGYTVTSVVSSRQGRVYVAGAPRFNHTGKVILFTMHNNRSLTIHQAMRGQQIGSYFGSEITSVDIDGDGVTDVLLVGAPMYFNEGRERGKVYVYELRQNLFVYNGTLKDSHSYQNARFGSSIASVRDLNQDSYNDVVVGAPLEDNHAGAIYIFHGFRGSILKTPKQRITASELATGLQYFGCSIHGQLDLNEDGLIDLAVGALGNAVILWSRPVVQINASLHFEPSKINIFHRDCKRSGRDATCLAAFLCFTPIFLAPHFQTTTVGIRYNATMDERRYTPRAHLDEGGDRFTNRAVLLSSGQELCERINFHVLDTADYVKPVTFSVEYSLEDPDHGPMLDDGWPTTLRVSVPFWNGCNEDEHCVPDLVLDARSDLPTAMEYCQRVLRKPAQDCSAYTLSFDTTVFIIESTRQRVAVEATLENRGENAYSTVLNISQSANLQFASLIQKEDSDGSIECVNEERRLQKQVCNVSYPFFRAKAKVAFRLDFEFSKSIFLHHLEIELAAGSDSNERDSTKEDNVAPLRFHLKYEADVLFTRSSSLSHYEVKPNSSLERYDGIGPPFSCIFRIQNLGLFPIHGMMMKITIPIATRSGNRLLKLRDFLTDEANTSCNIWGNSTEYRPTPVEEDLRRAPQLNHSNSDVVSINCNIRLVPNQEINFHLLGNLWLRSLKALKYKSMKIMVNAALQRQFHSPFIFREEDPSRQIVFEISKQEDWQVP
T1 sequence (P05556 21-728 limits assumed, chain 2 of 2): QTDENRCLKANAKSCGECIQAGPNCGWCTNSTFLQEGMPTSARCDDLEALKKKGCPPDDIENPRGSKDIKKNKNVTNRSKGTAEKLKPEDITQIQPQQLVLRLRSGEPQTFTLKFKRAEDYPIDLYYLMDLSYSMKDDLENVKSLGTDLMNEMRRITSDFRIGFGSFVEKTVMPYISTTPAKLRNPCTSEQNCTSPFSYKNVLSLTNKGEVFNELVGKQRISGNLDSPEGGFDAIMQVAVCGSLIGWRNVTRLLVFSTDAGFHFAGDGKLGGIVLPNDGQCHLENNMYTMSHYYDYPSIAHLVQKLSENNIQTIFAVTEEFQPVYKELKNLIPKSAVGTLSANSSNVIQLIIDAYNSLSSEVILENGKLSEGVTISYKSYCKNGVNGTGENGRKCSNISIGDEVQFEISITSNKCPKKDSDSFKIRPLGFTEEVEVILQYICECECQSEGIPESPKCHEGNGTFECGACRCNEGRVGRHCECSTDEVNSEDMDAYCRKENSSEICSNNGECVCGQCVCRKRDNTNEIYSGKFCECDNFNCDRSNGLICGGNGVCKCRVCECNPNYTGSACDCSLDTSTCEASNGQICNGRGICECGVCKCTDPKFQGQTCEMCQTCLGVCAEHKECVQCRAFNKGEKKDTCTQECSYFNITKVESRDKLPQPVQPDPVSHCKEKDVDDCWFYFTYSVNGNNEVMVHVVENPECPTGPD
Experimental: (§1) Peptide microarray was prepared by conjugating peptides at their N-terminal to a glass slide using a PEG linker. […] For the binding studies, the peptide array was blocked with 3% BSA in TBST for 2 hours. Then the array slide was washed 5 times in TB ST and subsequently incubated with the target receptor (α11β1, 10 μg/ml dissolved in PBS) for 1 hour at 37° C. The slides were washed with TBST and then incubated with primary antibody (1 μg/ml) against ITGA11 for 1 hour at 37° C. Then slides were washed and incubated with fluorescent dye labeled secondary antibodies for 30 minutes. The slides were washed with TBST and water and then dried and scanned with a microarray scanner to detect binding of the peptides. The enlightened spots were analyzed using ImageJ software. To determine the unspecific binding, a peptide array was incubated with only primary and secondary antibodies without the receptor incubation step. Then, the signal of unspecific binding was subtracted from the total binding to calculate specific binding.

Binding result, binds:
{glass slide-PEG}-AGLTEWLRWFNS (reading uncertain, Alanine at position 1 of AXI-I)
{glass slide-PEG}-SALTEWLRWFNS (reading uncertain, Alanine at position 2 of AXI-I)
B1
{glass slide-PEG}-SGLAEWLRWFNS (reading uncertain, Alanine at position 4 of AXI-I)
{glass slide-PEG}-SGLTAWLRWFNS (reading uncertain, Alanine at position 5 of AXI-I)
{glass slide-PEG linker}-SGLTEALRWFNS (reading uncertain, Alanine at position 6 of AXI-I)
{glass slide-PEG linker}-SGLTEWARWFNS (reading uncertain, Alanine at position 7 of AXI-I)
{glass slide-PEG linker}-SGLTEWLAWFNS (reading uncertain, Alanine at position 8 of AXI-I)
{glass slide-PEG linker}-SGLTEWLRAFNS (reading uncertain, Alanine at position 9 of AXI-I)
{glass slide-PEG linker}-SGLTEWLRWFNA (reading uncertain, Alanine at position 12 of AXI-I)
{glass slide-PEG}-LTEWLRWF (reading uncertain)
{glass slide-PEG}-GLTEWLRWFNS (reading uncertain)
{glass slide-PEG}-GLTEWLRWFN (reading uncertain)
{glass slide-PEG}-LTEWLRWFNS (reading uncertain)
{glass slide-PEG linker}-SGLTEWLRWFN (reading uncertain)
{glass slide-PEG linker}-SGLTEWLRWF (reading uncertain)
{glass slide-PEG linker}-WLRWFNS (reading uncertain)
{glass slide-PEG}-EWLRWFNS (reading uncertain)
{glass slide-PEG linker}-TEWLRWFNS (reading uncertain)
{glass slide-PEG linker}-SGLTEWLRW (reading uncertain)
{glass slide-PEG}-LRWFNS (reading uncertain)
B2

Binding result, no binding:
B3
B4
B5

target: T2, α5β1 human recombinant protein (human, UniProt P08648 42-995; P05556 21-728); assay: overlapping peptides on membrane incubated with 5 µg/ml α5β1; bound receptor transferred and detected with anti-alpha5 antibody
T2 construct: Bought from R&D Systems; also called α5β1 receptor; integrin α5β1
T2 sequence (P08648 42-995 limits assumed, chain 1 of 2): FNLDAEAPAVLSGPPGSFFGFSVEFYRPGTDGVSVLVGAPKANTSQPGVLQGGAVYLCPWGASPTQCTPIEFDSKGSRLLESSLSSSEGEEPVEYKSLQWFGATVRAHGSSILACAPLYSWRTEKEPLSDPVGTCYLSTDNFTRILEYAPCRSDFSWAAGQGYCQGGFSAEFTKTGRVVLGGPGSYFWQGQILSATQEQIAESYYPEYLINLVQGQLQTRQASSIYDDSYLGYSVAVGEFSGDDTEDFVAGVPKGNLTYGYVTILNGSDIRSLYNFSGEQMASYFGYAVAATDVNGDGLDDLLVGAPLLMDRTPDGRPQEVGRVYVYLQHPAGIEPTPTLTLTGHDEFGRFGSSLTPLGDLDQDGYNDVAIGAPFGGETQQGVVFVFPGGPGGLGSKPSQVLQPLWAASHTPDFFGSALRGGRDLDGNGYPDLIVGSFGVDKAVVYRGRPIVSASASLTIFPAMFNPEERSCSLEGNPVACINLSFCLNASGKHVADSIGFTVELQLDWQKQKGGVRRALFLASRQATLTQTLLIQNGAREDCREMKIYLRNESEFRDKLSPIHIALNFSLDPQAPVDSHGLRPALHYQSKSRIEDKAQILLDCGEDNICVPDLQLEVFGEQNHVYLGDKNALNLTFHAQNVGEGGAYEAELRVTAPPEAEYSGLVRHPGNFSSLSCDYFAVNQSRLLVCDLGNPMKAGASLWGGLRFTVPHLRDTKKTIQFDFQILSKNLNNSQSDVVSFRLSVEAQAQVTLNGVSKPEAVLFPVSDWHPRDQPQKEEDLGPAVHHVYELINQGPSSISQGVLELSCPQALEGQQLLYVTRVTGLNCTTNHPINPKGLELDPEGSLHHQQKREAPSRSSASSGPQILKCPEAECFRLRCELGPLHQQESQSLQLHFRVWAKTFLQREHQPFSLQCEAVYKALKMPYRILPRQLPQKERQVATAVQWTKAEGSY
T2 sequence (P05556 21-728 limits assumed, chain 2 of 2): as the sequence (P05556 21-728 limits assumed, chain 2 of 2) above
Experimental: Peptides were attached to their c-terminal site using stable linker. […] The peptide-displaying […] membrane was soaked in methanol for 1 minute and rinsed in Tris-buffered saline (TBS) and washed three times. Then, the membrane was blocked with 3% BSA in 0.05% TWEEN®-20 containing TBS (TBST) for 3 hours at room temperature. Then, the membrane was washed for 10 minutes with TB ST and incubated with 5 μg/ml α5β1 human recombinant protein (R&D systems) in 3% BSA in TB ST for 1 hour at room temperature and then overnight at 4° C. Subsequently, the membrane was washed three times with TB ST. Thereafter, the bound receptor to the membrane was transferred to the PVDF membrane. To achieve this, first, the PVDF membrane was soaked in methanol for 1 minute and then blocked with 5% skimmed fat milk for 2 hours. Then, the membrane was incubated with primary anti-alpha5 integrin antibody (Sigma-Aldrich) for overnight in 5% skimmed milk. The membrane was washed three times with TBST and then incubated with anti-rabbit-HRP secondary antibody (Dako), washed and developed with chemiluminescence detection kit.
The domains 9 and 10 of FN were chosen to design peptides, as these domains were reported to be responsible for binding to the α5β1 receptor, as shown with the docking experiments (Nagae et al, 2012 J. Cell Biol. 131-140). The interaction studies were performed against human recombinant integrin α5β1 receptor and the bound proteins were transferred to another membrane and ITGA5 was detected with antibodies. Many sequences appeared to bind to the α5β1 receptor from human and mouse domains, the strongest binding was obtained with 2 sequences from human FN-III domain 10 as follows.

Binding result, binds:
TTVRYYRITYGE-{stable linker-membrane} (reading uncertain)
GDSPASSKPISI-{linker-membrane} (reading uncertain)
SIELTNLLVRYS-{stable linker-membrane} (reading uncertain)
TNLLVRYSPVKN-{stable linker-membrane} (reading uncertain)

target: T2, α5β1 human recombinant protein; assay: peptide microarray incubated with α5β1, anti-α5 detection
Experimental: as §1, with “(α5β1,” for “(α11β1,”, “ITGA5” for “ITGA11”
To find out the amino acids responsible for the peptide binding and the most efficient binding peptides, peptide microarrays were developed with alanine replacement and shorter peptides. In addition, a peptide having the sequence […] (SEQ ID NO:11) (AV3-Cys) was developed. For AV3 (RYYRITY (SEQ ID NO:8)), the peptide microarray was incubated with […] receptor, which was captured by anti-α5 and then fluorescent dye labeled secondary antibody. […] Replacement of T6 induced unspecific binding of the peptide to the incubating antibodies (FIG. 13).

Binding result, no binding:
{glass slide-PEG}-RYARITY (reading uncertain) [AV3 with Y3 replaced by alanine]

Binding result, binds:
B6
B7
B8
B9
B10
